This is an account of results in PMC5084695 (Biochemistry, 2016).

The data set concerns the molecule itself. Kind of data set: SEC-MALS.

B1: SbnA (wild type, Staphylococcus aureus strain Newman) (enzyme, UniProt A6QDA0 1-326, looked up)
chain: MIEKSQACHDSLLDSVGQTPMVQLHQLFPKHEVFAKLEYMNPGGSMKDRPAKYIIEHGIKHGLITENTHLIESTSGNLGIALAMIAKIKGLKLTCVVDPKISPTNLKIIKSYGANVEMVEEPDAHGGYLMTRIAKVQELLATIDDAYWINQYANELNWQSHYHGAGTEIVETIKQPIDYFVAPVSTTGSIMGMSRKIKEVHPNAQIVAVDAKGSVIFGDKPINRELPGIGASRVPEILNRSEINQVIHVDDYQSALGCRKLIDYEGIFAGGSTGSIIAAIEQLITSIEEGATIVTILPDRGDRYLDLVYSDTWLEKMKSRQGVKSE
modifications: PLP (pyridoxal 5'-phosphate) covalently bound to Lys47 by an internal Schiff base (as isolated)
For the protein B1, the “stoichiometry N” value stood at 2.

One may read the stoichiometry N as the number of molecules, sites or subunits per partner or assembly.
